Four molecules from patent US20110237518A1 (ONCOTHERAPY SCIENCE, published 2011) can be followed below.

Assay [1] has as its target T1, FLAG-tagged ZNF224 (ZNF224-FLAG), pCAGGSc-ZNF224-FLAG (human, UniProt Q9NZL3 1-707).
T1 construct: Whole open reading frame of ZNF224 in frame with a C-terminal FLAG-tag, expressed in UM-UC-3 or COS7 cells; also called exogenous ZNF224; not shown: C-terminal FLAG-tag from the pCAGGScFLAG vector
The experiment in a line: co-IP with anti-HA antibody from co-transfected Cos7 cells. How it is done: (§1) To confirm the interaction between DEPDC1 and ZNF224 in bladder cancer cells and identify the ZNF224-binding region in DEPDC1, the immunoprecipitation experiment was carried out as follows. First, it was confirmed interaction between endogenous DEPDC1 and exogenous ZNF224 by immunoprecipitation experiments using anti-DEPDC1 polyclonal antibody for immunoprecipitation and anti-FLAGM2 antibody (Amersham) for immunoblotting. To further determine the ZNF224-binding region in DEPDC1, it was cloned six partial constructs of DEPDC1 (DEPDC1₁₋₁₄₇, DEPDC1₁₄₁₋₃₀₀, DEPDC1₁₇₇₋₅₉₇, DEPDC1₃₀₀₋₆₆₉, DEPDC1₅₈₇₋₇₄₀ and DEPDC1₆₅₄₋₈₁₁) into appropriate sites of COOH-terminal HA-tagged pCAGGS vector. The nucleotide sequence of each clones were determined with an ABI Prism 3700 DNA sequencer (Applied Biosystems, Foster City, Calif.), using each primer. Cell extracts from Cos7 cell line, transfected with each of plasmids expressing one of these six partial segments of DEPDC1, were precleared by incubation at 4 degrees C. for 1 hour with 100 micro 1 of protein G-agarose beads in final volumes of 2 mL of immunoprecipitation buffer (0.5% NP40, 50 mmol/L Tris-HCl, 150 mmol/L NaCl) in the presence of proteinase inhibitor. After centrifugation at 1,000 rpm for 5 minutes at 4 degrees C., the supernatants were incubated at 4 degrees C. with anti-HA rat for 1 hours. […]

Assay [2] concerns the target T1, FLAG-tagged ZNF224 (ZNF224-FLAG), …. Put plainly: co-IP with anti-HA rat antibody from co-transfected Cos7 cells. How it is done: as §1

T1 sequence (Q9NZL3 whole entry M118V/H562R): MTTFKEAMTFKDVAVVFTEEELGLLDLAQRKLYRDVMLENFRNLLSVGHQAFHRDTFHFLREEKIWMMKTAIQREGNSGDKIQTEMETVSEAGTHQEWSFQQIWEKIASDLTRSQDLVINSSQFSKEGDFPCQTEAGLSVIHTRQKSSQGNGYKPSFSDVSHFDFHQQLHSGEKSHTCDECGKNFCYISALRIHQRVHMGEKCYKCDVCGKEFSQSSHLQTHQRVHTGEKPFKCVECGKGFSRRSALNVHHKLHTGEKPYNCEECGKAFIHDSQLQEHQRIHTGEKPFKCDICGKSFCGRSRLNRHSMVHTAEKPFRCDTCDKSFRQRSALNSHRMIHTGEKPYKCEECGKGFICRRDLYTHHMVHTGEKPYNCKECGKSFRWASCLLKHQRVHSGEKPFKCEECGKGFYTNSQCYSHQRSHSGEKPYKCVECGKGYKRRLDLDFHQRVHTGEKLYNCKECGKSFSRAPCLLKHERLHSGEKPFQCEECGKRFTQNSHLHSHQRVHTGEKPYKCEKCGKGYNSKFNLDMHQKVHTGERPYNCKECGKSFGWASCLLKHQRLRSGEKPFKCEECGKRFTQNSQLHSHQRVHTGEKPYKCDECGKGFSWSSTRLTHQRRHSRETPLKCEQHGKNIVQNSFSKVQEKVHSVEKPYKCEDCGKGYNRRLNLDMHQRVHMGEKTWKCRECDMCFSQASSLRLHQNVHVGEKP

B1: DEPDC1 1-147, COOH-terminal HA-tagged partial construct (other)
chain: MESQGVPPGPYRATKLWNEVTTSFRAGMPLRKHRQHFKKYGNCFTAGEAVDWLYDLLRNNSNFGPEVTRQQTIQLLRKFLKNHVIEDIKGRWGSENVDDNNQLFRFPATSPLKTLPRRYPELRKNNIENFSKDKDSIFKLRNLSRRT
notes: not shown: C-terminal HA-tag from pCAGGScHA vector
B1: the binding result in assay [1] is “no binding”.

B2: DEPDC1 300-669, COOH-terminal HA-tagged partial construct (other)
chain: VNILVVCGYITVSDRSSGIHKIQDDPQSSKFLHLNNLNSFKSTECLLLSLLHREKNKEESDSTERLQISNPGFQERCAKKMQLVNLRNRRVSANDIMGGSCHNLIGLSNMHDLSSNSKPRCCSLEGIVDVPGNSSKEASSVFHQSFPNIEGQNNKLFLESKPKQEFLLNLHSEENIQKPFSAGFKRTSTLTVQDQEELCNGKCKSKQLCRSQSLLLRSSTRRNSYINTPVAEIIMKPNVGQGSTSVQTAMESELGESSATINKRLCKSTIELSENSLLPASSMLTGTQSLLQPHLERVAIDALQLCCLLLPPPNRRKLQLLMRMISRMSQNVDMPKLHDAMGTRSLMIHTFSRCVLCCAEEVDLDELLAG
notes: The forward primer carries an added ACCATG, so an extra start Met may precede residue 300; not shown: C-terminal HA-tag from pCAGGScHA vector
Take B2: the binding result in assay [2] is listed as “binds”.

B3: DEPDC1 587-740, COOH-terminal HA-tagged partial construct (other)
chain: QSLLQPHLERVAIDALQLCCLLLPPPNRRKLQLLMRMISRMSQNVDMPKLHDAMGTRSLMIHTFSRCVLCCAEEVDLDELLAGRLVSFLMDHHQEILQVPSYLQTAVEKHLDYLKKGHIENPGDGLFAPLPTYSYCKQISAQEFDEQKVSTSQA
notes: The forward primer carries an added ACCATG, so an extra start Met may precede residue 587; not shown: C-terminal HA-tag from pCAGGScHA vector
For the molecule B3, the binding result in assay [2] was “binds”.

B4: DEPDC1 177-597, COOH-terminal HA-tagged partial construct (other)
chain: DNRELSQEDVEEVWRYVILIYLQTILGVPSLEEVINPKQVIPQYIMYNMANTSKRGVVILQNKSDDLPHWVLSAMKCLANWPRSNDMNNPTYVGFERDVFRTIADYFLDLPEPLLTFEYYELFVNILVVCGYITVSDRSSGIHKIQDDPQSSKFLHLNNLNSFKSTECLLLSLLHREKNKEESDSTERLQISNPGFQERCAKKMQLVNLRNRRVSANDIMGGSCHNLIGLSNMHDLSSNSKPRCCSLEGIVDVPGNSSKEASSVFHQSFPNIEGQNNKLFLESKPKQEFLLNLHSEENIQKPFSAGFKRTSTLTVQDQEELCNGKCKSKQLCRSQSLLLRSSTRRNSYINTPVAEIIMKPNVGQGSTSVQTAMESELGESSATINKRLCKSTIELSENSLLPASSMLTGTQSLLQPHLERV
notes: as for B1
For B4, the binding result in assay [1] is given as “no binding”.
